The results in this text go back to US6340783B1, “Rodent models of human amyloidoses” (University of Washington, priority 1992, dated 2002).

Entries after “also recorded” stand apart in the source; their conditions may differ. Read-outs that look alike come from different tables or passages of the source.

The target in experiment [1] is T1, Beta-Amyloid Protein (1-28) (Homo sapiens, UniProt P05067).
T1 construct: residues 1-28 of BAP or residues 597-624 of BAPP; purchased Bachem Inc., Torrance, Calif; host or cells: synthetic peptide
T1 sequence (P05067 672-699 limits assumed): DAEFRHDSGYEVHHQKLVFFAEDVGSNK
As to the kind of experiment: Competitive inhibition of 125I-labeled HSPG binding to BAP (1-28) affinity column. Conditions: absence of unlabeled competing ligand, n=5. The protocol:
^125I-labeled HSPGs in the presence of increasing concentrations of unlabeled GAGs, or large low density HSPG (from EHS sarcoma) were applied to an Affi-gel 10 column containing BAP (residues 1-28). After nonbound PGs were eluted from the column using TBS+0.1% TX-100, bound PGs were eluted with a step gradient using 15 ml of 1M MgCl2 in TBS+0.1% TX-100, followed by 15 ml of 4M MgCl2 in TBS+0.1% TX-100, and then 10 ml of 8M urea buffer containing 3M NaCl. […] Bars indicate standard error of the mean.
In order to test the specificity of HSPG binding to BAP (1-28), competitive inhibition experiments were also performed. 125-I labeled HSPGs (100,000-200,000 dpm) were mixed with (a) HSPG from EHS sarcoma (Mr approximately 700,000) (Kato et al., 1988) (gift of Dr. Koji Kimata, Aichi, Japan), (b) heparin from porcine intestinal mucosa (Mr˜11,000; Sigma, St. Louis, Mo.), (c) chondroitin-6-sulfate from shark cartilage (Mr˜59,000; Sigma, St. Louis, Mo.), or (d) […] dextran sulfate (Mr˜110,000; Pharmacia Fine Chemicals, Uppsala, Sweden). The samples were incubated on a rotator for 2 hours at room temperature and then applied to the BAP (1-28) column. Columns were run and eluted with step gradients (1 to 4 M MgCl2) as described above.
Purified iodinated HSPGs were combined with various concentrations of unlabeled competing ligands and applied to a BAP (1-28) affinity column (FIG. 10).

The next experiment addresses T2, BAP (residues 1-28) (Homo sapiens, UniProt P05067).
T2 construct: residues 1-28 of BAP or residues 597-624 of BAPP; purchased Bachem Inc., Torrance, Calif; host or cells: synthetic peptide
As to the kind of experiment: Affinity column chromatography of labeled proteoglycans on BAP (1-28) Affi-gel 10 column. The experiment is classed as binding. The protocol:
Approximately 500,000 dpm of ^35S-sulfate labeled PGs isolated from the culture media of ECs were applied to Affi-gel 10 affinity columns containing approximately 0.45 mg of 1) residues 1-28 of BAP, 2) residues 410-429, a region of BAPP present in the extracellular domain, or 3) bovine serum albumin. The labeled PGs were left on the column for 1 hour, after which non-bound radiolabelled PGs were eluted with 25 ml (50 0.5 ml fractions) of TBS+0.1% TX-100 and collected on a fraction collector. Bound PGs were then eluted from the column with 15 mls of 4M MgCl2 in TBS+0.1% TX-100.
0.5 mg or 1.0 mg of ligands consisting of 1) BAP (1-28) (Bachem Inc., Torrance, Calif.), 2) a peptide corresponding to residues 410-429 of the BAPP (gift of Dr. Dennis Selkoe, Boston, U.S.A.) or 3) bovine serum albumin (BSA fraction V, Boehringer, Mannheim Biochemical) were dissolved initially in 400 μl of double distilled water to which was added an equal volume of 0.2 M HEPES buffer (pH 7.5) containing 160 mM calcium chloride. The ligand solutions were added to 0.8-1.0 ml of Affi-gel 10 (Biorad, Richmond, Calif.) and coupling was allowed to proceed for 4 hours at 4° C., after which 1/10 volume of IM ethanolamine (pH 8.0) was added and incubation continued for an additional 1-2 hours to block remaining unreacted ester groups. Gel coupled ligand was then transferred to Biorad Econo-columns and washed with TBS in 0.1% Triton-X 100. To assess the amount of bound ligand, soluble (nonbound) protein remaining in the wash buffer was assayed. The affinity columns coupled approximately 90% of ligand initially applied (i.e. 0.45 mg or 0.90 mg).
^35S-sulfate labeled PGs isolated from the culture media (360,000 dpm) of ECs and SMCs were applied to Affi-gel 10 columns containing 1) BAP (residues 1-28), 2) BAPP (residues 410-429) or 3) Bovine serum albumin. The labeled PGs were allowed to interact with the affinity gel for 1 hour (preliminary experiments indicated maximum binding efficiency at 1 hour) and non-bound radiolabelled PGs were eluted with 25 ml of TBS+0.1% Triton X-100 (TBS-TX 100). Bound PGs were eluted with either a single-step gradient using 15 mls of 4M MgCl2 in TBS-TX 100 or a linear gradient of 0 to 4M MgCl2 in TBS-TX 100. In some experiments, columns were further eluted with 15 ml of 8M urea in 50 mM Tris-HCl (pH 7.5), with 0.5% Triton X-100 and 3M NaCl. The radioactivity per fraction was determined by scintillation counting. Most experiments were repeated a minimum of three times. Recoveries of applied radioactivity from the affinity columns ranged from 80-95%.

With “high Mr HSPG: ˜600-800 kDa heparan sulfate proteoglycan isolated from culture media of bovine aortic endothelial cells”, the “applied 125I-HSPG bound to the BAP column” value in experiment [1] was determined as 21.6±4.4%. Also, the results for the “binding to BAP (1-28) affinity column” value with BAP (residues 1-28) and with BAP (residues 1-28) (listed as 125I-HSPG) were “strong binding; also recorded: bound tightly” and “high affinity”, respectively. Further, the “eluent that removed most bound PGs from BAP column” value with BAP (residues 1-28) (after 0 to 4M MgCl2 gradient and 4M MgCl2 wash) is reported as 8M urea+3M NaCl.
